# Results from patent publication US20050214871A1.
# Molecular target: ligands present on the membranes of early apoptotic cells
# Assay: flow cytometry on anti-CD95-treated Jurkat E6-1 cells, streptavidin-PE detection
substance,measurement,value
"human soluble CD163, biotinylated (sCD163-biotin) (from UniProt Q86VB7 42-1045)",percent of early apoptotic Jurkat E6-1 cells binding sCD163-biotin,> 50%
